According to paper PMC11162425:

What was measured:
[1] = target: Lcl-N GFP fusion (N-GFP) (Legionella pneumophila strain 130b); test: SEC
[2] = target: Legionella collagen-like protein (Lcl) from L. pneumophila strain 130b, intact recombinant (residues 1-401) (Legionella pneumophila strain 130b); test: SEC-MALS

Substance | stoichiometry N [1] | stoichiometry N [2]
Lcl-N GFP fusion (N-GFP) (domain or fragment) | 3 | –
Legionella collagen-like protein (Lcl) from L. pneumophila strain 130b, intact recombinant (residues 1-401) (natural protein) | – | 3
